According to the RNAGym collection of RNA variant scans (doi:10.1073/pnas.2313332121):

B1: TPR t1 (parent)
chain: GACCAAUCUGCCCUCAGAGCUCGAGAACAUCUUCGGAUGCAGAGGAGGCAGGCUUCGGUGGCGCGAUAGCGCCAACGUCCUCAACCUCCAAUGCAUCCCACCACAUGAUGAUGCCUGAAGAGCCUUGGUUUUUUG

Variants of: B1
Assay: polymerase ribozyme fitness, log enrichment relative to wild type (log ratio); higher = more active; in vitro selection for triplet polymerase activity
How it was run: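 After PCR construction and transcription, each subunit's mutant library from a heterodimeric triplet polymerase ribozyme was annealed with a biotinylated primer, the partner subunit and triplets. Incubation was frozen, at −7 °C, and extended constructs were gel-excised, bound to streptavidin beads and amplified by RT-PCR, in one selection round done in triplicate. Fitness is the logarithm of a genotype's enrichment divided by that of the wild type, from inverse-variance-weighted replicate averages of Illumina-sequenced inputs and outputs. The base of the logarithm is 2, and genotypes needed ≥10 input reads and ≥1 read per output.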
For GACCAAUCUGCCCUCAGAGCUCGAGAACAUCUUCGGAUGCAGAGGCGGCAGGCUUCGGUGGCGCGAUAGCUCCAACGUCCUCAACCACCAAUGCAUCCCACCACAUGAUGAUGCCUGAAGAGUCUUGGUUUAUUG [A46C G71U U87A C123U U132A], the “polymerase ribozyme fitness (log ratio)” value was 0.774.
For GACCAAUCUGCGCUCAGAGCUCGAGAACAUCUUCGGAUGCAGAGCAGGCAGGCUCCGGUGGCGCGAUAGCGUCAACGUCCUCAAACUCCAAUGCAACCCACCACAUGAUGAUGCCUGAAGAGCCUUGGUUUUUUG [C12G G45C U55C C72U C85A U96A], the “polymerase ribozyme fitness (log ratio)” value was -4.29.
In the case of GACCAAUCUGCCCUUAGAGCACGAGAACAUCUUCGGAUGCAGAGGAGGCAGGCUUCGGUGGCGCGAUAGCGCCAACGUCCUCAACCUCCAAUGCAGCCCACCACAUGAUGAUGCCUGUAGAGCCUUGGUUUUUUG [C15U U21A U96G A118U], the “polymerase ribozyme fitness (log ratio)” value is reported as -0.0472.
In the case of GACCAGUCUGCCCUCAGAGCUCGAGAACAUCUUCGGAUGCAGACGAGGCAGGCUUCGGUGGCGCGAUAGCGCCAACGUCCUCAACCUCCAAUGCAUCCCACCACAUGAUGACGCCUGAAGAGCCUUGGUUUUUUG [A6G G44C U112C], the “polymerase ribozyme fitness (log ratio)” value is reported as 0.311.
For GACCAAUCUGCCCUCAGAGCUCGAGAACAUCUUCGGAUGCAGAGGAGGCAGGCUUCGGUGGCGCGAUAGCGCCAACGUCCUCAACCUCCAAUGCAUCCCACCACAUGAUGACGCCUGUAGAGCCUUGGUUUUUUG [U112C A118U], the “polymerase ribozyme fitness (log ratio)” value was 1.35.
For GACCAAUUUGCCCUCAGAGCUCGAGAACAUCUUCGGAUGCAGAGGAGGCAGGCUUCGGGGGCGCGAUAGCGCCAACGUCCUCAACCUCCAAUGCAUCCCACCACAUGAUGAUGCCUGAAGAGCCUUGGUUUUUUG [C8U U59G], the “polymerase ribozyme fitness (log ratio)” value was 0.21.
For GACCUAUCUGCCCUCAGAGCUCGAGAACAUCUUCGGAUGCAGACGAGGCAGGCUUCGGUUGCGCGAUAGCGCCAACGUCCUCAACCUCCAAUGCAGCCCACCACAUGAUGAUGCCUGAAGAGCCUUAGUUGUUUG [A5U G44C G60U U96G G127A U131G], the “polymerase ribozyme fitness (log ratio)” value was -3.9.
In the case of GACCAAUCUGCCCUUAGAGCUCGAGAACAUCUUCGGAUGCAGAGGAGGCAGGCUUCGGUGGCGCGAUAGCGCCAACGUCCUCAACUUCCAAUGCAUCCCACCACAUGAUGAUGCCUGAAGAGCCUUGGUUUUUUG [C15U C86U], the “polymerase ribozyme fitness (log ratio)” value is reported as -1.61.
With GACCAAUCUGGCCUCAGAGCUCGAGAACAUCUUCGGAUGCAGAGGAGGCAGGCUUCGGUGGCGCGAUAGCGCCAACAUCCUCAACCUCCAAUGCAUCCCACCACAUGAUGAUGCCUGAAGAGCCUUGGUUUUUUG [C11G G77A] the “polymerase ribozyme fitness (log ratio)” value was -0.375.
In the case of GACCAAUCUGCCCUCAGAGCUCGAGAACAUCUUCGGAUGCAGAGGAGGCUGGUUUCGGUGGCGCGAUAGCGCCAACGUCCUCGCCCUCGAAUGCAUCCCACCACAUGAUGAUGCUUGAAGAGCCUUGGUUUUUUG [A50U C53U A83G A84C C89G C115U], the “polymerase ribozyme fitness (log ratio)” value is reported as -5.92.
In the case of GACCAAUCUGCCCUCAGAGCUCGAGAACAUCUUCGGAUGCAGAGGAGCCAGGCUUGGGUGGUGCGAUAGCGCCAACGCCCUCAACCUCCAAUGCAUCCCACCACAUGAUGAUGCUUGAAGAGCAUUGGUUUUUUG [G48C C56G C62U U78C C115U C124A], the “polymerase ribozyme fitness (log ratio)” value is reported as -2.1.
In the case of GACCAAUCUGCCCUCAGAGCUCGAGAACAUCUUCGGAUGCAUAGGAGGCAGGCUUCGCUGGCACGAUAGCGCCAACGUCCUGAACCCCCAAUGCAUCCCACCACAUGAUGAUGCCUGAAGAGCCUUGGUUUUUUG [G42U G58C G63A C82G U87C], the “polymerase ribozyme fitness (log ratio)” value is reported as -5.43.
With GACCAAUCUCCCCUCAGAGCUCGAGAACAUCUUCGGAGGCAGAGGAGGCAGGGUUCGGUGGCCCGAUAGCGCCAACGUCCUCAACCUCCAAUGCAUCCCACCACAUGAUGUUGCCUGAAGAGCUUUGGUUUUGUG [G10C U38G C53G G63C A111U C124U U133G] the “polymerase ribozyme fitness (log ratio)” value was -5.15.
With GACCAAUCUGACCUCAGUGCUCGAGAACAUCUUCGGAUGCAGAGGAGGCAGGCUUCGGUGGCGCGAUGGCGCCAACGUCCUCAACCUCCAAUGCAUCCCACCACAUGAUGAUGCCUGAAUAGCCUUGGUUUUUUG [C11A A18U A68G G120U] the “polymerase ribozyme fitness (log ratio)” value was -4.2.
In the case of GACCAAUCUGCCCUCAGAGCGCGAGAACAUCUUCGGAUGCAGAGGAGGCUGGCUUCGGUGGCGCGAUAGCGCCAACGUCCUCAACCUCCAAUGCAUCCCACCACAUGAUGAUGCCUGAAGAGCCUUGGUUUUUUG [U21G A50U], the “polymerase ribozyme fitness (log ratio)” value is reported as -2.82.
In the case of GACCAAUCUGCCCUCAGAGCUCGAGAACAUCUUCGGAUGCAGAGGAGGCAGGCUUCGGUGGCGCGAUAGCGCCAACGUCCUCAACCUCCAAUGCAUCCCACUACAUGAUGAUACCUGAAGAGCCUUGGUUUUUUG [C102U G113A], the “polymerase ribozyme fitness (log ratio)” value is reported as -2.86.
For GACCAAUGUGCCCUCAGAGUUCGAGAACAUCUUCGGAUGCAGAGGAGGCAGGCUUCGGUGGCGCGAUAUCGCCAACGUCCUCAACCUCCAAUGCAUCCCAUCACAUGAUGAUGCCUGAAGAGCCUUGGUUUUUUG [C8G C20U G69U C101U], the “polymerase ribozyme fitness (log ratio)” value was -1.07.
In the case of GACCAAUCUGCCUUCAGAGCUCGAGAACAGCUUCGGAUGCAGAGGAGGCAGGCUGCGGUGGCGCGAUAGCGCCAACGUCCUCAACCUCCAAUGCAUCCCACCACAUGAUGUUGCCUGAAGAGCCUUGGUUUUUUG [C13U U30G U55G A111U], the “polymerase ribozyme fitness (log ratio)” value is reported as -4.31.
With GACCAACCUGCCCUCAGCGCUCGAGAACAUCUUCGGAUGCAGAGGAGGCAGGCUUCGGUGGCGCGAUAGCGCCAACGCCCUUAACCUCCAAUGCAUCCCACCACAUGAUGAUGCCUGAAGAGCCUUGGUUUUUUG [U7C A18C U78C C82U] the “polymerase ribozyme fitness (log ratio)” value was -1.52.
With GACCAAUCUGCCCUCAGAGCUCGAGAACAUCUUCGGAUGCAGAGGAGGCAGGCUUCGGUGGCGCGAUAGCGCCAACGUCCUCAACCUCCAAUGCAUCCCACCACAUGAUGAUGCCUGAAGAAUCUUGGUUUUUUG [G122A C123U] the “polymerase ribozyme fitness (log ratio)” value was 0.258.
In the case of GACCAAUCUGCCCUCAGAGCUCGAGAACAUCUUCGGAUGCAGAGGAGGCAGGCUUCGGUGGCGCGAUAGCGCCAACGUCCUAAACAUCCAAUGCAUCCCACCACAUGAUGAUGCCUGAAGAGCCUUGGUUUUUUG [C82A C86A], the “polymerase ribozyme fitness (log ratio)” value is reported as -0.787.
